Tested on: peptide library, one residue held at a place counted from the Y acceptor
Assay: relative phosphorylation of the sub-library (ratio to the mean residue at this position); higher = residue favoured
Outline: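 Purified recombinant kinases were incubated for 90 min in 384-well plates with biotinylated Tyr-centred peptide library mixtures, each fixing one residue at one position from −5 to +5, plus 50 μM ATP with γ-32P-ATP. Peptides were captured on streptavidin membranes, rinsed and quantified by phosphorimaging and ImageQuant. Intensities were normalized per position by the sum of the 18 (or 16, Ser/Thr-free library) randomized residues and multiplied by that number. Values give phosphorylation relative to the mean randomized residue.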

Chain of MKK7, construct: Full length, human (O14733 whole entry, looked up): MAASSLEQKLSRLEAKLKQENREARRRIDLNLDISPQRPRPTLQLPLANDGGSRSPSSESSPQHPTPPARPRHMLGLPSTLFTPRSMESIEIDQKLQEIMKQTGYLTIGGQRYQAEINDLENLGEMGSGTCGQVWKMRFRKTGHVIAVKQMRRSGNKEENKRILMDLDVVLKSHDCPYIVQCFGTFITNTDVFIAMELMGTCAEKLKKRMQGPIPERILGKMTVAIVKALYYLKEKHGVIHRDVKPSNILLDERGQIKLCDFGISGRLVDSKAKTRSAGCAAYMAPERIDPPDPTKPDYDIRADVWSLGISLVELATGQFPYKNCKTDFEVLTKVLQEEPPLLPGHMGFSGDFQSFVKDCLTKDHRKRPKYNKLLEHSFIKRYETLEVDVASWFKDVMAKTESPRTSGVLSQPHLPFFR
Chain of MUSK, construct: aa529-end, human (O15146 529-869, looked up): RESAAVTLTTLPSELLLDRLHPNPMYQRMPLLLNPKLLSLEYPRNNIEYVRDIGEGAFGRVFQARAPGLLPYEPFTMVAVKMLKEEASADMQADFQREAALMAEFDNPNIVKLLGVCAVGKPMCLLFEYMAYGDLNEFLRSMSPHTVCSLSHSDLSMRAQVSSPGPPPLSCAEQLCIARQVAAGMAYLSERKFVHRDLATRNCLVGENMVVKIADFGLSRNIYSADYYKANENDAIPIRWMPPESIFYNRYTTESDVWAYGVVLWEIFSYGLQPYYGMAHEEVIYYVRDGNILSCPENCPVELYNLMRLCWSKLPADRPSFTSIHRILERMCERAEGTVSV
Chain of MKK4, construct: aa34-end, human (P45985 34-399, looked up): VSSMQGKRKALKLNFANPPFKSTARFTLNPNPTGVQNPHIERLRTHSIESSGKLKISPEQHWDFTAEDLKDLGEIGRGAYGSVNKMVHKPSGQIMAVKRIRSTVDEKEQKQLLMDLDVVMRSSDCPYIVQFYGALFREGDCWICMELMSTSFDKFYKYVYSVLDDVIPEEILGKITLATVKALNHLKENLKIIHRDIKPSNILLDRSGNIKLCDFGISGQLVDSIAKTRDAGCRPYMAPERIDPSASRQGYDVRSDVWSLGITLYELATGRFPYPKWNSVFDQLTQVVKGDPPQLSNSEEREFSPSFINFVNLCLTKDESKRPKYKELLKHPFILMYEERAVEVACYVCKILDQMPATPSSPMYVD

MKK4, construct: aa34-end, human (from UniProt P45985)
relative phosphorylation
Settings	at +1	at +2	at +3	at +4	at +5	at -1	at -2	at -3	at -4	at -5
A fixed	1.14	0.979	0.996	1.06	0.902	0.986	1.01	0.916	1.11	1.06
D fixed	1.32	1.29	1.03	1.2	1.02	1.49	1.18	0.991	1.09	0.992
E fixed	1.26	1.05	1.16	1.05	1.18	1.2	1.17	0.898	1.09	1.06
F fixed	0.867	1.1	1.08	1.12	1.13	0.844	1.06	1.05	1.06	1.17
G fixed	1.49	1.25	1.12	1.15	1.18	1.58	1.02	0.961	1.2	1.18
H fixed	0.87	0.959	0.981	1.22	1.04	0.866	0.994	1.01	1	1.11
I fixed	0.748	0.79	0.796	0.795	0.79	0.898	0.72	0.833	0.785	0.884
K fixed	0.786	0.846	0.923	0.837	0.909	0.638	1.09	1.07	0.878	0.915
L fixed	0.892	0.859	0.806	0.855	0.941	1.03	0.974	0.991	0.905	0.905
M fixed	1.05	0.907	0.949	0.904	0.88	1.11	0.922	0.934	0.918	0.873
N fixed	0.957	1.03	0.898	0.844	0.9	0.905	0.983	0.939	0.86	0.984
P fixed	1.11	1.32	1.34	1.37	1.22	1.04	1.05	0.928	1.08	1.09
Q fixed	0.87	0.893	0.854	0.753	0.858	0.885	0.856	1.04	0.977	0.902
R fixed	0.865	0.941	0.977	0.907	1.05	0.771	0.958	1.41	1.02	0.97
V fixed	0.775	0.779	0.826	0.761	0.775	0.694	0.792	0.736	0.771	0.713
W fixed	0.999	1.02	1.27	1.18	1.21	1.06	1.21	1.28	1.24	1.2
pThr fixed	1.17	1.23	1.15	1.21	1.07	1.05	0.96	1.2	1.29	1.18
pTyr fixed	1.25	0.974	1.18	0.991	1.22	2.13	1.28	1.25	1.18	1.18

MKK6, construct: Full length, human (from UniProt P52564)
relative phosphorylation
Settings	at +1	at +2	at +3	at +4	at +5	at -1	at -2	at -3	at -4	at -5
A fixed	0.98	0.864	0.898	0.991	0.809	1.01	0.924	1.01	1.08	1.07
D fixed	1.16	1.47	1.16	1.39	1.26	1.56	1.38	1.17	1.2	1.25
E fixed	1.18	1.32	1.29	1.24	1.3	1.41	1.31	1.03	1.18	1.22
F fixed	0.736	1.04	1.08	1.11	1.06	0.746	0.926	1.05	0.926	1.03
G fixed	1.45	0.959	0.966	1.04	1.06	1.31	0.972	0.972	1.21	1.04
H fixed	0.977	1.01	0.93	1.02	0.997	1.08	1.08	1.01	1.04	1.1
I fixed	0.66	0.709	0.711	0.742	0.819	0.643	0.668	0.746	0.718	0.798
K fixed	0.807	0.912	0.926	0.872	0.845	0.724	0.915	1.02	0.841	0.922
L fixed	0.816	0.825	0.76	0.83	0.896	0.814	0.819	0.859	0.904	0.791
M fixed	0.975	0.862	0.925	0.897	0.928	0.891	0.891	0.855	0.886	0.796
N fixed	1.11	0.973	1	0.958	1.03	1.09	1.19	1.12	0.966	1.16
P fixed	1.18	1.03	1.12	1.2	1.05	1.03	0.989	0.851	1.09	1.03
Q fixed	1.02	0.887	0.978	0.934	1.08	1.11	1.01	1.25	1.07	1.01
R fixed	1.05	0.781	0.921	0.867	0.93	0.76	0.866	1.19	0.955	0.928
V fixed	0.738	0.797	0.832	0.736	0.792	0.569	0.691	0.746	0.817	0.778
W fixed	1.15	1.55	1.52	1.17	1.14	1.25	1.36	1.12	1.12	1.08
pThr fixed	1.51	1.74	1.23	1.52	1.24	1.39	1.11	1.57	1.29	1.34
pTyr fixed	1.13	1.18	1.3	1.36	1.41	1.85	1.21	1.33	1.1	1.26

MKK7, construct: Full length, human (from UniProt O14733)
relative phosphorylation
Settings	at +1	at +2	at +3	at +4	at +5	at -1	at -2	at -3	at -4	at -5
A fixed	0.866	0.844	0.903	0.959	0.929	1.02	0.884	0.883	1.05	0.989
D fixed	0.796	1.11	1.02	1.07	0.952	0.915	0.883	0.947	0.993	1.02
E fixed	0.856	0.895	1.27	0.992	1.05	0.914	0.91	0.926	0.996	0.917
F fixed	1.11	1.39	1.21	1.13	1.14	0.857	1.28	1.1	1.08	1.14
G fixed	0.926	0.779	0.915	0.979	1.11	1.38	1.24	1.25	1.19	1.04
H fixed	1	1.09	1.02	1.02	1.02	0.958	1.06	1.05	0.968	1.09
I fixed	0.983	0.753	0.89	0.93	0.8	0.896	0.764	0.807	0.882	0.87
K fixed	0.896	1.09	0.896	0.989	1.08	1.04	1.17	1.14	1.06	1.16
L fixed	1.04	0.851	0.841	1.13	0.891	1.04	0.821	0.912	0.894	0.913
M fixed	1.38	0.857	1.05	1.03	0.977	0.926	0.855	0.828	0.881	0.89
N fixed	0.919	0.946	0.973	0.894	0.984	0.947	1.04	0.98	0.89	0.959
P fixed	0.955	0.819	0.941	1.09	1.04	1.07	1.04	1.06	1.11	0.99
Q fixed	0.873	0.929	1.09	0.881	0.991	0.951	0.891	1.07	0.974	0.952
R fixed	1	1.09	1.01	0.97	1.13	1.12	1.29	1.24	1.13	1.16
V fixed	0.918	0.844	0.822	0.828	0.73	0.85	0.803	0.794	0.844	0.802
W fixed	1.49	1.72	1.14	1.11	1.18	1.12	1.07	1.01	1.06	1.1
pThr fixed	0.894	1.05	0.876	1.08	1.01	1.09	0.859	1.08	1.05	1.11
pTyr fixed	0.963	1.06	1.03	1.01	1.09	1.57	1.11	1.82	1.05	1.11

MUSK, construct: aa529-end, human (from UniProt O15146)
relative phosphorylation
Settings	at +1	at +2	at +3	at +4	at +5	at -1	at -2	at -3	at -4	at -5
A fixed	1.21	0.711	0.689	0.799	0.969	0.559	0.817	0.963	1.25	1.09
D fixed	0.341	0.179	0.233	0.665	0.832	0.932	0.856	1.09	0.763	0.981
E fixed	0.619	0.251	0.156	0.481	0.784	2.14	1.44	1	0.919	0.766
F fixed	1.9	1.59	1.49	1.06	1.01	1.33	0.962	1.16	1.38	1.33
G fixed	0.835	0.386	0.886	0.94	1.08	0.401	1.06	0.981	1.14	1.06
H fixed	1.68	0.852	0.868	1.2	1.07	1.51	1.14	1.04	0.977	0.891
I fixed	1.31	1.54	1.59	0.808	0.781	1.5	1.02	0.87	1.02	0.946
K fixed	0.317	1.58	0.99	1.53	1.15	0.248	0.779	0.855	0.822	0.916
L fixed	0.926	1.12	1.09	0.907	1.02	1.62	1.09	1.04	1.13	1.17
M fixed	1.58	0.918	1.24	1.1	0.964	0.939	0.914	1.15	0.996	1.13
N fixed	0.41	0.774	0.62	0.848	0.935	2.14	1.35	1.09	0.877	1.04
P fixed	0.151	0.654	1.2	0.974	1.04	0.476	0.672	0.865	1.09	1.01
Q fixed	0.768	0.847	0.48	1.11	0.786	0.782	1.04	0.881	1.06	1.11
R fixed	0.541	2.19	2.06	1.57	1.66	0.255	0.976	0.866	0.972	0.892
S fixed	0.58	0.819	0.591	1.04	0.858	0.437	1.05	1.09	0.721	0.804
T fixed	0.563	0.862	0.843	0.771	0.987	0.465	1.03	0.936	0.627	0.663
V fixed	1.55	1.69	1.48	0.86	0.836	1.19	0.921	0.874	0.881	0.962
W fixed	2.72	1.05	1.49	1.36	1.24	1.06	0.892	1.25	1.39	1.25
pThr fixed	1.15	0.475	0.215	0.619	0.435	1.32	0.741	0.718	0.587	0.773
pTyr fixed	11.8	1.11	0.592	0.73	0.832	5.58	1.07	1.32	0.963	1.02

Reference: the supplement of paper PMC11136658
